Results from patent US20250236644A1 (University of Washington, published 2025).

T1: TAMRA-labeled effector peptide cs217B (5(6)-TAMRA label coupled on resin after synthesis)
T1 construct: also called TAMRA-cs217B
T1 peptide: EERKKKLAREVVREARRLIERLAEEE

T2: TAMRA-labeled effector peptide cs221B (5(6)-TAMRA label coupled on resin after synthesis)
T2 construct: also called TAMRA-cs221B
T2 peptide: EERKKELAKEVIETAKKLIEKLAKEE

T3: TAMRA-labeled effector peptide cs201B (5(6)-TAMRA label coupled on resin after synthesis)
T3 construct: also called TAMRA-cs201B
T3 peptide: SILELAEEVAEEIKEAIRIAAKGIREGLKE

T4: TAMRA-labeled effector peptide cs074B (5(6)-TAMRA label coupled on resin after synthesis)
T4 construct: Chemically synthesized; also called TAMRA-cs074B
T4 peptide: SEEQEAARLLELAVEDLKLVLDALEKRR

T5: TAMRA-labeled effector peptide cs094B (5(6)-TAMRA label coupled on resin after synthesis)
T5 construct: also called TAMRA-cs094B
T5 peptide: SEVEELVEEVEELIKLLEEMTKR

T6: TAMRA-labeled effector peptide cs207B (5(6)-TAMRA label coupled on resin after synthesis)
T6 construct: also called TAMRA-cs207B
T6 peptide: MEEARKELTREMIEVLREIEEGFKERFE


Columns and labels:
[1] = target: T1, TAMRA-labeled effector peptide cs217B; assay: fluorescence polarization titration; signal never reached a plateau, only a lower bound can be estimated
Method: (§1) All FP measurements were performed at 25° C. in 96-well plates (Corning 3686) using a Synergy Neo2™ plate reader and a 530/590 nm filter cube. The buffer for all FP measurements was 20 mM Tris-HCl, 100 mM NaCl, 0.05% v/v TWEEN20 at pH 8. Titrations were carried out in 96-well format, with 4 replicates per plate and 24 data points per titration (23 steps of two-fold serial dilution of hinges in the presence of TAMRA-labeled peptide at a constant concentration between 0.1 nM and 1 nM) with a final sample volume of 80 μl per well. Titration plates were incubated overnight at room temperature before measuring to ensure complete equilibration. The polarization signal S (as calculated by the Neo2™ software) was fitted to the equation

[2] = target: T2, TAMRA-labeled effector peptide cs221B; assay: FP titration, 1 nM peptide, hinge varied
Method: (§2) FIG. 10. Redesign of hinges to bind other target peptides. An experimentally tested hinge (top, cs201) is redesigned using a one-sided two-state design approach to bind to different target peptides. Hinges csw13 and csw20 are designed to bind to peptides cs221B and cs074B, respectively, while having a backbone conformation that is similar to the parent cs201 that binds cs201B. Left: design models, right: FP titrations using 1 nM peptide (cs201B, cs221B, cs074B, js007B) and varying concentrations of hinge (from top to bottom: cs201, csw13, csw20). csw13 is an example of a successful orthogonal redesign that specifically binds the new target peptide cs221B while not binding the parent target peptide cs201B or the off-target peptides cs074B or js007B. csw20 is a less orthogonal example that binds the new target peptide cs074B most strongly but still binds to the parent-target peptide cs201B and to the off-target peptide cs221B albeit weaker than the new target.
as §1

[3] = target: T3, TAMRA-labeled effector peptide cs201B; assay: FP titration, 1 nM peptide, hinge varied
Method: as §2, §1

[4] = target: T4, TAMRA-labeled effector peptide cs074B; assay: FP titration, 1 nM peptide, hinge varied
Method: as §2, §1

[5] = target: T3, TAMRA-labeled effector peptide cs201B; assay: fluorescence polarization titration; TAMRA-peptide constant, hinge varied
From the text: (§3) We used our hinge design approach to generate hinge-peptide pairs that span a wide structural space (FIGS. 1D, 2A, 6, 7). We experimentally tested multiple rounds of designs, using both DHRs (21) and helical junctions (22) as input scaffolds, and improving individual steps of the design pipeline between iterations. Designs for which hinge and GFP-fused peptide were soluble and interacted as judged by size exclusion chromatography (SEC, FIGS. 7-8) were selected for further characterization by fluorescence polarization (FP). […] To circumvent the bottleneck of finding soluble peptide sequences, we also sought to design hinges that bind to a given target peptide. Starting from design cs201, we used a modified version of our design pipeline to redesign the hinge to bind peptides cs074B or cs221B, respectively, which have similar hydrophobic fingerprints as the original target peptide cs201B.
as §1

[6] = target: T3, TAMRA-labeled effector peptide cs201B; assay: fluorescence polarization kinetics; slope of kapp against hinge concentration
Method: as §1
(§4) For FP kinetics experiments a 2× peptide solution and 8 different 2× hinge solutions at different concentrations were prepared separately. 40 μl of each hinge solution were mixed with 40 μl peptide solution using a multichannel pipet and the measurement was started immediately after mixing. Polarization signals S at each concentration were fitted individually to the equation

[7] = target: T5, TAMRA-labeled effector peptide cs094B; assay: fluorescence polarization titration; TAMRA-peptide constant, hinge varied
From the text: as §3, §1

[8] = target: T5, TAMRA-labeled effector peptide cs094B; assay: fluorescence polarization kinetics; slope of kapp against hinge concentration
Method: as §1, §4

[9] = target: T2, TAMRA-labeled effector peptide cs221B; assay: fluorescence polarization titration; 1 nM TAMRA-peptide, unlabeled hinge varied
Method: as §1

[10] = target: T6, TAMRA-labeled effector peptide cs207B; assay: fluorescence polarization titration; TAMRA-peptide constant, hinge varied
From the text: as §3, §1

[11] = target: T2, TAMRA-labeled effector peptide cs221B; assay: as above
From the text: as §3, §1

[12] = target: T2, TAMRA-labeled effector peptide cs221B; assay: fluorescence polarization kinetics; slope of kapp against hinge concentration
Method: as §1, §4

[13] = target: T2, TAMRA-labeled effector peptide cs221B; assay: fluorescence polarization kinetics
From the text: To test the effect of the conformational pre-equilibrium on effector binding, we introduced disulfide “staples” that lock the hinge in one conformation. Using FP we analyzed peptide binding to stapled versions of hinge cs221 (FIG. 5A,B). […] Using the pre-equilibrium model described above, the observed association rates provide an estimate of the fraction of hinge that is in state Y in absence of the peptide: a 200-fold higher observed on rate for the locked Y variant indicates a 200-fold higher fraction of hinge in state Y compared to the original hinge. Assuming that the locked Y variant is 100% in state Y and assuming that the microscopic rate constant k₂ is identical for the locked Y hinge and state Y of the original hinge, this would indicate that the original hinge is 99.5% in state X and 0.5% in state Y at equilibrium.
as §4

Row | Kd [11] | kon [12] | Binder | other results
1 |  |  | hinge cs217 (designed binder) MSGEMKEEIRRLAEELEKKTKDEEVKELARKAAELAEKSDNEEVLEVVKEALRAALKSKDEEVRRLLLEAAVLAAAAESSGSPEEKLEVALRAIRLAEKSKDEEVRRLALEAAVLAAESDDEEVLEEVLRALRRAEESKDEEERREELREAVRRAREGSGSHHWGSTHHHHHH | Kd [1]: 20000 nM
2 |  |  | swapped target hinge csw20 (designed binder) MSGMEEVKELVEKAEELAKEAEELIKKAKKTGNPELLKEALRKLKEAVELAKEAVELDPEHEEAIELLARLAEKLLEVAKLLIELAKKTGNPELLKEALRALKEAREALRLAAEHAPEDAKLLARLAARLAELALLIAKILIELAKKTGNPELLLKALKVLTLAVEAVEAALEADPRLKEAVRVAKELAEVLKELAKLAKELAKKTGNEELKEAAKEAEEVAKRAEELAREAEGSGSHHWGSTHHHHHH | binding result [2]: binds; binding result [3]: binds; binding result [4]: binds
3 |  |  | hinge cs201 (designed binder, also called unlabeled hinge cs201) MSGDEEVQEAVERAEELREEAEELIKKARKTGDPELLRKALEALKEAVRAVREAIKRNPDNEEAIKTALRLARELRKVAKELIERARKTGDAELLKKALEAARVAVEAVRLAAEYNKENAEKMAELLVELAELAREVADVLIELAEKTGDPELLKKALEVLEEAVEAVRLAIEYDPDHEEAVETAKRLAEELRKVAELLEERAKETGDPELQELAKRAKEVADRARELAKKSNGSGSHHWGSTHHHHHH | Kd [5]: 22 nM; kon [6]: 6700 M⁻¹ s⁻¹
4 |  |  | hinge cs094 (designed binder) MSGDEEERLRQEVEKAEKELEKLAKQSTDEEVRKMVREVAKQLRRLAEEAIRQKDDEALRQATEVVKMVQEAVKVAQKTTDQKVILLLLAVALVAIKVAQLAIRSDDTEALRLARIVIRAVQLLVKLVQKTTDPEVRRTALRVAELLAKLAKEAIERNDEEALREASEVVKEVQELVKEAEKSTDEEEIRELLQRAEERIREAQERIREGSGSHHWGSTHHHHHH | Kd [7]: 830 nM; kon [8]: 9400 M⁻¹ s⁻¹
5 |  |  | FRET(extension) cs221F, unlabeled (designed binder, also called unlabeled extended hinge cs221F) MSGEMVEEIEKLAEELAKKTKDCEVKKLAKKAAELAKKSTDEMKKEIVKDALELALRTKDEEVIRLALKAAVLAAESDDEEVKEVVKKALEAALKSKDEEVIRLLLLAAVLAAAAARSGSPEEKLEIAKKALELAMKSKDEEVIRLALLAAVLAARSDDEEVLKIVKKALELAMESKDVEVIRLALEAAVLAARSTDPEKKKCVYEALEKAMESKDEEEIKKELKAAVEKARSTEGSGSHHWGSTHHHHHH | Kd [9]: 23 nM
6 |  |  | hinge cs207 (designed binder, also called cs207A) MSGTEDERRELEKVARKAIEAAREGNTDEVREQLQRALEIARESGSEEAFKLALEVVRRVAEVAARAGNVEAVKEALRVALEIVKEAMELIKDPEAIVRLALEAVRVVAEVAARAGAVEAVKVALRVALEIAKIAGTEEAVRLALEVVKRVSDIAKKAGNEDAVKEAEEVRKKIEEESGGSGSHHWGSTHHHHHH | Kd [10]: 820 nM
7 | 2 nM | 3400 M⁻¹ s⁻¹ | hinge cs221 (designed binder, also called original cs221; parent hinge without cysteines) MSGEMKEEIRRLAEELRERTKDEEVRELAREAARLAEESDDEEVKEVVKKALEAALKSKDEEVIRLLLLAAVLAAAAARSGSPEEKLEIAKKALELAMKSKDEEVIRLALLAAVLAARSDDEEVLKKVKEALEKAMESKDVEEIRERLREAVEVARAGSGSHHWGSTHHHHHH | 
8 | 0.3 nM | 24300 M⁻¹ s⁻¹ | cs221_V111L (designed binder, Point mutant of hinge cs221) MSGEMKEEIRRLAEELRERTKDEEVRELAREAARLAEESDDEEVKEVVKKALEAALKSKDEEVIRLLLLAAVLAAAAARSGSPEEKLEIAKKALELAMKSKDEEVIRLALLAALLAARSDDEEVLKKVKEALEKAMESKDVEEIRERLREAVEVARAGSGSHHWGSTHHHHHH | 
9 | 38.3 nM | 2700 M⁻¹ s⁻¹ | cs221_L66T (designed binder, Point mutant of hinge cs221) MSGEMKEEIRRLAEELRERTKDEEVRELAREAARLAEESDDEEVKEVVKKALEAALKSKDEEVIRLLLTAAVLAAAAARSGSPEEKLEIAKKALELAMKSKDEEVIRLALLAAVLAARSDDEEVLKKVKEALEKAMESKDVEEIRERLREAVEVARAGSGSHHWGSTHHHHHH | 
10 | 12 nM | 790000 M⁻¹ s⁻¹ | variant cs221_lockedY (designed binder, disulfide bond between the two introduced cysteines (locks the hinge in state Y; oxidized with copper phenanthroline), also called cs221 locked Y hinge variant) MSGEMKEEIRRLAEELRERTKDEEVRELAREAARLAEESDDEEVKEVVKKALEAALKSKDEEVIRLLLCAAVLAAAAARSGSPEEKLEIAKKALELAMKSKDEEVIRLACLAAVLAARSDDEEVLKKVKEALEKAMESKDVEEIRERLREAVEVARAGSGSHHWGSTHHHHHH | fold higher association rate than the original hinge cs221 [13]: 200 fold
11 | 0.2 nM | 27700 M⁻¹ s⁻¹ | cs221_A114T (designed binder, Point mutant of hinge cs221) MSGEMKEEIRRLAEELRERTKDEEVRELAREAARLAEESDDEEVKEVVKKALEAALKSKDEEVIRLLLLAAVLAAAAARSGSPEEKLEIAKKALELAMKSKDEEVIRLALLAAVLATRSDDEEVLKKVKEALEKAMESKDVEEIRERLREAVEVARAGSGSHHWGSTHHHHHH | 
12 | 4.9 nM | 1900 M⁻¹ s⁻¹ | cs221_A73E (designed binder, Point mutant of hinge cs221) MSGEMKEEIRRLAEELRERTKDEEVRELAREAARLAEESDDEEVKEVVKKALEAALKSKDEEVIRLLLLAAVLAAEAARSGSPEEKLEIAKKALELAMKSKDEEVIRLALLAAVLAARSDDEEVLKKVKEALEKAMESKDVEEIRERLREAVEVARAGSGSHHWGSTHHHHHH | 
13 | 0.1 nM | 76200 M⁻¹ s⁻¹ | cs221_V111L_A114T (designed binder, Double mutant of hinge cs221; also called cs221-mut) MSGEMKEEIRRLAEELRERTKDEEVRELAREAARLAEESDDEEVKEVVKKALEAALKSKDEEVIRLLLLAAVLAAAAARSGSPEEKLEIAKKALELAMKSKDEEVIRLALLAALLATRSDDEEVLKKVKEALEKAMESKDVEEIRERLREAVEVARAGSGSHHWGSTHHHHHH | fold higher on rate than the original cs221 [13]: 22 fold
